From the nanobody polyreactivity screen of Harvey et al. (2022)

Assay: yeast display, Sf9 membrane polyspecificity reagent, FACS + sequencing; frameworks hold sequencing errors
Method in brief: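 A synthetic nanobody library was expressed on Saccharomyces cerevisiae BJ5465 by galactose induction for 36–48 hours. The library was stained for 1 hour at 4 °C with 10% biotinylated, detergent-solubilized Sf9 membrane reagent and enriched with streptavidin microbeads before FACS. Low and high (top ~1%) gates were set on anti-HA fluorescence for expression and streptavidin fluorescence for reagent binding, and each polyreactivity label reflects the gate of origin.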

| Sequence | polyreactivity (PSR sort gate) |
| --- | --- |
| QVQLVESGGGLVHAGGSLRLSCAASGSTSVYYAMGWYRQTPGKERELVAAITWDDGSTSYADSVKGRFTISRDNAKNTVYLQMNSLNPEDTAVYYCAKDYEYLGAFNYWGQGTQVTVSS | low polyreactivity |
| QGPHVESGGGLVQAGGSLRLSCAASGSTFYNYAMGWYIQAPGKEREFVATISFSGGSTYYADSVKGRFTISRDNAKNTVYLQMNSLKPEETAVYYCAARALTRKATGYYLTDYWGQGTQVTVSS | high polyreactivity |
| QVQLVESWGGLVQAGGRLRLSCAASGRIFWRYAMGWYRQAPGKERELVAAISGRGASTYYADSVKGRFTISRDNAKNTVYLQMNSLKPEDTAVYYCAASLRYRYRYYASDYGYWGQGTQVTVSS | high polyreactivity |
| QVQHVESGGGLVQAGGSLRLSCAASGSTLSRYVMGWDRQAPGKERELVASISWTGTRTYYADSVKGRFTISRDNAKNTVYLQMNSLKPEDTAVYYCNAVSRGGRLYDYWGQGTQVTVSS | high polyreactivity |
| QVQLVESGGGLVQAGGSLRLSCAASGSISRFNTMGWYRQAPGKERELVAAITVSGGSTYYADSVKGRFTISRDNAKNTVYLQMNSLKPEDTAVYYCAKEAWRYRLNFRYNYWGQGTQVTVSS | low polyreactivity |
| QVQRVESGGGLVQAGGSLRLTCAASGITFFVYAMGCYRQAPGKERELVATINWSGASTYYADSVKGRFTISRDNAKNSVYLQMNSLKPEDTAVYYCAKDGHYPLVYLAFDYWGQGTQVTVSS | low polyreactivity |
| QVQLVESGGGLVQAGGSLRLSCAASGLIFWAYAMGWYRQAPGKERELVAGISVSGGSTYYADSVKGRFTISRDNAKNTVYLQMNSLKPEDTAVYYCAARLPRTRYWDDYWGQGTQVTVSS | high polyreactivity |
| QVQLVESGGGLVQAGGSLRLSCAASGRIFSFYTMGWYRQAPGKERELVAAISSGGRTYYADSVKGRFTISRDNEKNTVYLQMNSLKPEDTAVYYCAAGSHYAFYYWGQGTQVTVSS | high polyreactivity |
| QVQLVESGGGLVQAGGSLRLSCAASGSTFVGNAMGWYRQAPVKERELVATISNSGGHTFYADSVKGRFTISRDNAKNTVYLQMNSLKPEDTAVYYCAASTSGAIRRDGYWGQGTQVTVSS | low polyreactivity |
| QVQLVESGGGLVQAGGSLPLSCAASGFIFPGYAMGWYRQAPGKERELVAVISSRGGSTKYADSVKGRFTISRDNANYSVYLQMNSLNPEDTAVYYCAAARAPRKYDSWGQGTQVTVSS | high polyreactivity |
| QVQLVESGGGLVQAGGSLRLSCAASGRIFRDYDMGWYRQAPGKERELVASISTRGGSTYADSVKGRFTISRDNAKNTVYLQMNSLKPEDTAVYYCAADSSGFSRYDYWGQGSQVTVSS | low polyreactivity |
| QVQLVESGGGLVQAGGSLRLSCAASGGTIDRYAMGWYRQAPGKERELVAAITKSGDRTYYADSVKGRFTISRDNAKNTVYLQMNSLKPEDTAVYYCAAAYSGLRRQNGFNYWGQGTQVTVSS | high polyreactivity |
| QVQLVESGGGLVQAGGSLRLSCAASGRIFAKYAMGWYRQAPGKERELVAAISLSGGRTYYADSVKGRFTISRDNAKNTVYLQMNSLKPEDTAVYYCAAEFYPIRYYGGYDYWGQGTQVTVSS | low polyreactivity |
| QVQLVDSGGGLVQAGGSLRLSCAASGCTFGSYAMGWYRQAPGKERELVAGITGSGGRTYYADSVKGRFTISRDNAKNTVYLQMNSLKPEDTAVYYCATTGRRWYYPYHYWGQGTHVTVSS | high polyreactivity |
| QVQLVESGGGLVQAGGSLRLSCAASGRTFSNYVMGWYRQAPAKERELVAAITYSGGSTYYADSVKGRFTISRDNATNTVYLQMNSLKPEDTAVYYCARRWGGRGYYYWGQGTQVTVSS | high polyreactivity |
| QVQLVESGGGLVQAGGSLRLSCAASGYTFYWNAMGWYRQAPGKEREFVASFSGTSTYYADSVKGRFTISRDNAKNTVYLQMNSLKREDTAVYYCNARLTLGPRKYEYWGPGTQVTVSS | low polyreactivity |
| QVQLEESGGGLVQAGGSLRLSCAASGSTFYGYAMGWNRQAPGKERELVAAITRSGGSTYYADSVKGRFTISRDNAKNTVYLQMNSLKPEDTEVYYCNKYGYKGGVGYDYWGQGTQVTVSS | high polyreactivity |
| QVQLVESGGGLVQAGGSLRLSCAASGSIFWRNAMGWYRQAPGKERELVAAITSGGTTNYADSVKGRFTISRDNAKNTVYLQMNSLKPEDTAVYYCATGASYLRRYDHPHSDVDYWGQGTQVTVSS | low polyreactivity |
| QVQLVESGGGLVQAGGSLRLSCAASGYTFSQNAMGWYRQAPGKERELVAAITWSGAGTYYADSVKGRFTISRDNAKNTVYLQMNSLKPEDTAVYYCAAREWTSQDRQHNYWGQGTQVTVSS | low polyreactivity |
| QVQLVESGGGLVQAGGSLRLSCAASGSTFTSYAMGWYIQAPGKERELVAAIRYRGDGTYYADSVKGRFTISRDNAKNTVYLQMNSLKPEDTAVYYCAADTTLQAFIRYRPIGSYDSWGQGTQVTVSS | low polyreactivity |
| QVQLVETGGGLVQAGGSLRLSCAASGSIFYAYAMGWYRQAPGKERELVATITSGGSTNYADSVKGRFTISRDNAKNTVYLQMNSLKPEDTAVYYCAVDISYSLGGGFGYDYWGQGTQVTVSS | low polyreactivity |
| QVQLVESGGGLVQAGGSLRLSCAASGRTFRYNAMGWYLQAPGKERELVAAITRRDGRTYYADSVKGRFTISRDNAKNTVYLQMNSLKPEDTAVYYCGVEYWVVNAQGYDYWGQGTQVTVSS | high polyreactivity |

| Sequence | polyreactivity (PSR sort gate) |
| --- | --- |
| QVQLVESGGGLVQAGGSLRLSCAASGRIFTYNAMGWYRQAPGKERELVAAITYRGSSTYYADSVKGRFTISRDNAKNTVYLQMNSLKPEDTAVYYCAAPRLIRFVTYYSWGQGTQVTVSS | high polyreactivity |
| QVQLVESGGGLVQAGGSLRLRCAASGSIFKTYAMGWYRQAPRKERELVAAITTSGGRTYYADSVKGRFTISRDNAKYTVYLQMNSLKPEDTAVYYCNADLFPGYVSYPEYDYWGQGTQVTVSS | low polyreactivity |
| QVQLEESGGALVQAGGSLRLSGAASVSTFAYYAMGWYRQAPGKERELVAAISWSGGSTYYADSVKGRFTISRDNAKNTVYLLMNSLKPEDTAVYYCNKRNVLDYDYWGQGTQVTVSS | low polyreactivity |
| QVQLVESGGGLVQPGGSLRLSCAASGRIFIVNAMGWYRQAPGKERELVAAISRRGGSTYYADSVKGRFTISRDIAKNTVYLQMNSLKPEDTAVYYCNAVGGRYTGWRYDYWGQGTQVTVSS | high polyreactivity |
| QVQLVESGGGLVQAGGSLRLSCAASGGTFYGNAMGWYRQAPGKERELVAGITDDSSTYYADSVKGRFTISRDNAKNTVYLQMNSLKPEDTAVYYCAKDLSWYYLPEVYYWGQGTQVTVSS | low polyreactivity |
| QVQLVESGGGLVQAGGSLRLSCAASGRTFSANAMGWYRQAPGKERELVATISSGGRTNYADSVKGRFTISRDNAKNTVYLQMNSLKPEDTAVYYCAKRGPYNRWYGRYDYWGQGTQVTVSS | low polyreactivity |
| QVQLVESGGGLDQARGSLRLSCAASGSNFRYYAIGGYRPAHGKERELVASITGSGGRTYYADSVKGRFTISLDNAKNTVYLQMNSLKPEDTAVYYCAVPYHQGNMDYWGQGTQVTVSS | high polyreactivity |
| QVQLVESGGGLVQAGGSLRLSCAASGRTFTEYAMGWYRQAPGKEREFVARIRWSDGSTYYADSVKGRFTISRDNAKNTVYLQMNSLLPEDTAVYYCAARYIETPVTVLSLMDYWGQGTQVTVSS | low polyreactivity |
| QVKRVESGGGLVQAGGSLRLSCAASGSTFYRYAMGWYRQAPGKERELVAAINGRGGRTYYADSVKGRFTISRDNAKNTVYLQMNSLKPEDTAVYYCAARGYAPDTYGYWGQGTQVTVSS | high polyreactivity |
| QVQLVESGGGLVQAGGSLRLSCAASGGIFYSNAMGWYRQAPGKERELVAVISGNGGRTYYADSVKGRFTISRDNAKNTVYLQMNSLKPEDTAVYYCATPSYTTAYVEGDYWGQGTQVTVSS | low polyreactivity |
| QVQLVESGGGLVQAGGSLRLSCAASGSTFGWYTMGWYRQAPGKERELVATISYGGGITNYADSVKGRFTMSRDNAKNTVDLQMNSLKPEDTAVYYWAVDNTGRSWPYDYWGQGTQVTVSS | low polyreactivity |
| QVQLVESGGGLVQAGGSLRLSCAASGRIVKYAMGWYRQAPGKERELVAAISGSGGTTYYADSVKGRFTISRDNAKNTVYLQMNSLKPEDTAVYYCAASRPRPPSSRRMDYWGQGTQVTVSS | high polyreactivity |
| QVQLVESGGGLVQAGGSLRLSCSASERTFYWNTMGWYRQAPGKERELVAAIRTSGGSTYYADSVKGRFTISRDNAKNTVYLQMNSLKPEDTAVYYCAAKYRNYNTRYDYWGQGTQVTVSS | high polyreactivity |
| QVQLVESGGGLVQAGGSLRISCAASGSNFIRYAKGWYRQAPGKEMELVAAIRWSAGSTSYADSVKGRFTISRDNAKNTVYLQMNSLKPEDTAVYYCAAGPDYGWRRYDYWGQGTQVTVSS | low polyreactivity |
| QVQLVESGGGLVQAGGSLRLSCAASGFILRAYAMGWYRQAPGKEREFVAAITRRGGSTYYADSVKGRFTISRDNAKNTVYLQMNSLKPEDTAVYYCAAKFFSSPHNLGYWGQGTQVTVSS | high polyreactivity |
| QVQLVESGGGLVQAGGSLRLSCAASGSTFFIYTMGWYRQAPGKEREFVAAISWTGGRTYYADSVKGRFTISRDNAKYTVYLQMNSLIPEDTPVYYCAALYKYSSYDYWGQGTQVTVSS | high polyreactivity |
| QVQLVESGGGLVQAGGSLRLSCAASGLTFSIYAMGWYRPAPGKERELVAGISQSGGSTYADSVKGRFTISRDNAKNTVYLQMNSLKPEDTAVYYCAKEFEWVGSPSTVDGLEYWGHGTQVTVSS | low polyreactivity |
| QLQHEESRGGLVQAGGSLRLSCAASGFIFPAYVMGWYRQAPGKERELVSAIDWSGDNTYYADSVKGRFTISRDNAKNTVYLQMNSLTPEDTAVYYCAKDNDYPTEWLSDYYYWGQGTQVTVSS | low polyreactivity |
| QVQLVESGGGLVQAGGSLRLSCAASGRTFYTNAMGRYRQAPGKERELVAAISRGGGRTYYADSVKGRFTISRDNAKNTVYLQMNSLKPEDTAVYYCAASPYQGQGREYYYWGQGTQVTVSS | high polyreactivity |
| QVQIVESGGRLVQAAGRLSLTCAASGSIFVWNAMGWYRQEPGKEREVVAAITNIGGRTYYADSVKGRFTISRDNAKYTVYLQMNSQKPEATAGYYCNSDLVSRLGWSTTSDSWGQGTQVTVSS | high polyreactivity |
| QVQLVESGGGLVQAGGSLRLSCAASGRTFSKYTMGWYRQAPGKERELVAVISRSGTRTYYADSVKGRFTISRDNAKNTVYLQMNSLKPEDTAVYYCAAKDERRSFGMGYWGQGPQVTVSS | high polyreactivity |
